Experimental data taken from publication PMC8694188, “EPSP Synthase-Depleted Cells Are Aromatic Amino Acid Auxotrophs in Mycobacterium smegmatis” (Microbiology Spectrum, 2021).

Substrate: C=C(OP(=O)(O)O)C(=O)O
Test: continuous coupled spectrophotometric Pi release assay (MtPNP / MESG)
Type: biochemical, Mycolicibacterium smegmatis
Settings: apparent constant, PEP varied at fixed-saturating S3P, 100 mM Tris-HCl pH 7.8, 25°C
Text: continuous coupled spectrophotometric Pi release assay (MtPNP / MESG) on MsEPSPS

| Protein | Km | kcat | kcat/Km |
| --- | --- | --- | --- |
| MsEPSPS (Mycolicibacterium smegmatis MC2 155) (protein, full-length WT aroA in pET-23a(+) (NdeI/HindIII), expressed in E. coli; no tag evident (native stop codon in reverse primer, ion-exchange and hydrophobic purification); apparent mass 46 kDa on SDS-PAGE) MSARADEEQKPHWAAPSTTAPVDATVTVPGSKSLTNRALILAALATSQGTSTISGALRSRDTDLMIEAIRTLGVTVDISAADPTELTVHGSIEPATDATVDCGLAGTVLRFVPPVAALSRSSVTFDGDEQARSRPIAPLLDGLRRLGVRLDGDGLPFTVRGTGTVSGGTVEIDASGSSQFVSGLLLSGAGFENGLTIVHTGVSVPSAPHVAMTVAMLRDAGVEVDDSVANRWQVNPGPVAARSWNIEPDLSNSTPFLAAALVTGGTVRIAGWPTVSIQPADTILELLATVGGSVREADGHLEVTGAHEYGGFEADLHDVGELAPTVAALAALAKEGSTSQLRGIAHLRGHETDRLAALTTEINGLGGDCRETDDGLLITARPLHGGTWRSYADHRMATAGAIVGLRVPGVVVENIETTAKTLPDFPSMWVDMLAGEPGRNQQR | 88 ± 11 µM | 0.553 ± 0.0185 s⁻¹ | 6280 M⁻¹ s⁻¹ |
| MsEPSPS (Mycolicibacterium smegmatis MC2 155; D61W) (protein, full-length WT aroA in pET-23a(+) (NdeI/HindIII), expressed in E. coli; no tag evident (native stop codon in reverse primer, ion-exchange and hydrophobic purification); apparent mass 46 kDa on SDS-PAGE) MSARADEEQKPHWAAPSTTAPVDATVTVPGSKSLTNRALILAALATSQGTSTISGALRSRWTDLMIEAIRTLGVTVDISAADPTELTVHGSIEPATDATVDCGLAGTVLRFVPPVAALSRSSVTFDGDEQARSRPIAPLLDGLRRLGVRLDGDGLPFTVRGTGTVSGGTVEIDASGSSQFVSGLLLSGAGFENGLTIVHTGVSVPSAPHVAMTVAMLRDAGVEVDDSVANRWQVNPGPVAARSWNIEPDLSNSTPFLAAALVTGGTVRIAGWPTVSIQPADTILELLATVGGSVREADGHLEVTGAHEYGGFEADLHDVGELAPTVAALAALAKEGSTSQLRGIAHLRGHETDRLAALTTEINGLGGDCRETDDGLLITARPLHGGTWRSYADHRMATAGAIVGLRVPGVVVENIETTAKTLPDFPSMWVDMLAGEPGRNQQR | 1,014 ± 975 μM | 0.107 ± 0.0608 s⁻¹ | 106 M⁻¹ s⁻¹ |
| MsEPSPS (Mycolicibacterium smegmatis MC2 155; R134A) (protein, full-length WT aroA in pET-23a(+) (NdeI/HindIII), expressed in E. coli; no tag evident (native stop codon in reverse primer, ion-exchange and hydrophobic purification); apparent mass 46 kDa on SDS-PAGE) MSARADEEQKPHWAAPSTTAPVDATVTVPGSKSLTNRALILAALATSQGTSTISGALRSRDTDLMIEAIRTLGVTVDISAADPTELTVHGSIEPATDATVDCGLAGTVLRFVPPVAALSRSSVTFDGDEQARSAPIAPLLDGLRRLGVRLDGDGLPFTVRGTGTVSGGTVEIDASGSSQFVSGLLLSGAGFENGLTIVHTGVSVPSAPHVAMTVAMLRDAGVEVDDSVANRWQVNPGPVAARSWNIEPDLSNSTPFLAAALVTGGTVRIAGWPTVSIQPADTILELLATVGGSVREADGHLEVTGAHEYGGFEADLHDVGELAPTVAALAALAKEGSTSQLRGIAHLRGHETDRLAALTTEINGLGGDCRETDDGLLITARPLHGGTWRSYADHRMATAGAIVGLRVPGVVVENIETTAKTLPDFPSMWVDMLAGEPGRNQQR | 3,676 ± 1,007 μM | 0.184 ± 0.033 s⁻¹ | 50.1 M⁻¹ s⁻¹ |
| MsEPSPS (Mycolicibacterium smegmatis MC2 155; E321N) (protein, full-length WT aroA in pET-23a(+) (NdeI/HindIII), expressed in E. coli; no tag evident (native stop codon in reverse primer, ion-exchange and hydrophobic purification); apparent mass 46 kDa on SDS-PAGE) MSARADEEQKPHWAAPSTTAPVDATVTVPGSKSLTNRALILAALATSQGTSTISGALRSRDTDLMIEAIRTLGVTVDISAADPTELTVHGSIEPATDATVDCGLAGTVLRFVPPVAALSRSSVTFDGDEQARSRPIAPLLDGLRRLGVRLDGDGLPFTVRGTGTVSGGTVEIDASGSSQFVSGLLLSGAGFENGLTIVHTGVSVPSAPHVAMTVAMLRDAGVEVDDSVANRWQVNPGPVAARSWNIEPDLSNSTPFLAAALVTGGTVRIAGWPTVSIQPADTILELLATVGGSVREADGHLEVTGAHEYGGFEADLHDVGNLAPTVAALAALAKEGSTSQLRGIAHLRGHETDRLAALTTEINGLGGDCRETDDGLLITARPLHGGTWRSYADHRMATAGAIVGLRVPGVVVENIETTAKTLPDFPSMWVDMLAGEPGRNQQR | 3,081 ± 808 μM | 0.438 ± 0.0469 s⁻¹ | 142 M⁻¹ s⁻¹ |
